{"source": "the supplement of paper PMC10567573", "parents": {"B1": {"name": "TRIM35 (parent)", "chain": "WEVQVSPTCPVCKDRASPADLRTN"}}, "data": [{"variants_of": "B1", "assay": "protein stability index of a GFP-peptide fusion (GPS, HEK-293T) (PSI 1-6); higher = more stable", "conditions": "c terminus: a fixed tail appended", "values": [{"variant": "WEVQVSPTCMVCKDRASPADLRTN", "protein stability index": 2.46}, {"variant": "WEVQVSPTCKVCKDRASPADLRTN", "protein stability index": 2.79}, {"variant": "WEVQVSPTCSVCKDRASPADLRTN", "protein stability index": 3.32}, {"variant": "WEVQVSPTCYVCKDRASPADLRTN", "protein stability index": 2.29}, {"variant": "WEVQVSPTCIVCKDRASPADLRTN", "protein stability index": 2.34}, {"variant": "WEVQVSPTCVVCKDRASPADLRTN", "protein stability index": 2.02}, {"variant": "WEVQVSPTCLVCKDRASPADLRTN", "protein stability index": 2.65}, {"variant": "WEVQVSPTCAVCKDRASPADLRTN", "protein stability index": 1.25}, {"variant": "WEVQVSPTCPVCKDRASPADLSTN", "protein stability index": 2.91}, {"variant": "WEVQVSPTCPVCKDRASPADLPTN", "protein stability index": 3.74}, {"variant": "WEVQVSPTCPVCKDRASPADLVTN", "protein stability index": 3.75}, {"variant": "WEVQVSPTCPVCKDRASPADLLTN", "protein stability index": 2.45}, {"variant": "WEVQVSPTCPVCKDRASPADLNTN", "protein stability index": 2.75}, {"variant": "WEVLVSPTCPVCKDRASPADLRTN", "protein stability index": 2.08}, {"variant": "WEVVVSPTCPVCKDRASPADLRTN", "protein stability index": 2}, {"variant": "WEVAVSPTCPVCKDRASPADLRTN", "protein stability index": 1.73}, {"variant": "WEVKVSPTCPVCKDRASPADLRTN", "protein stability index": 2.07}, {"variant": "WEVEVSPTCPVCKDRASPADLRTN", "protein stability index": 2.08}, {"variant": "WEVYVSPTCPVCKDRASPADLRTN", "protein stability index": 3.38}, {"variant": "WEVQVGPTCPVCKDRASPADLRTN", "protein stability index": 2.54}, {"variant": "WEVQVTPTCPVCKDRASPADLRTN", "protein stability index": 2.22}, {"variant": "WEVQVCPTCPVCKDRASPADLRTN", "protein stability index": 2.63}, {"variant": "WEVQVWPTCPVCKDRASPADLRTN", "protein stability index": 1.94}, {"variant": "WEVQVFPTCPVCKDRASPADLRTN", "protein stability index": 2.4}, {"variant": "WEVQVNPTCPVCKDRASPADLRTN", "protein stability index": 3.46}, {"variant": "WEVQVMPTCPVCKDRASPADLRTN", "protein stability index": 1.89}, {"variant": "WEVQVAPTCPVCKDRASPADLRTN", "protein stability index": 1.87}, {"variant": "WEVQVSPTCPVCKDSASPADLRTN", "protein stability index": 3.07}, {"variant": "WEVQVSPTCPVCKDQASPADLRTN", "protein stability index": 2.54}, {"variant": "WEVQVSPTCPVCKDMASPADLRTN", "protein stability index": 2.04}, {"variant": "WEVQVSPTCPVCKDIASPADLRTN", "protein stability index": 2.48}, {"variant": "WEVQVSPTCPVCKDCASPADLRTN", "protein stability index": 2.26}, {"variant": "WEVQVSPTCPVCKDHASPADLRTN", "protein stability index": 2.46}, {"variant": "WEVQVSPTCPVCKDTASPADLRTN", "protein stability index": 2.54}, {"variant": "WEVQVSPTCPVCKDEASPADLRTN", "protein stability index": 3.43}, {"variant": "WEVQVSPTCPVCKDFASPADLRTN", "protein stability index": 2.07}, {"variant": "WEVQVSPTCPVCKDRASMADLRTN", "protein stability index": 1.99}, {"variant": "WEVQVSPTCPVCKDRASFADLRTN", "protein stability index": 1.95}, {"variant": "WEVQVSPTCPVCKDRASIADLRTN", "protein stability index": 2.87}, {"variant": "WEVQVSPTCPVCKDRASGADLRTN", "protein stability index": 2.51}, {"variant": "WEVQVSPTCPVCKDRASHADLRTN", "protein stability index": 1.6}, {"variant": "WEVQVSPTCPVCKDRASRADLRTN", "protein stability index": 3.2}, {"variant": "WEVQVSPTCPVCKDRASNADLRTN", "protein stability index": 2.39}, {"variant": "WEVQVSPTCPVCKDRASKADLRTN", "protein stability index": 2.52}, {"variant": "WEVQVSPTCPVCKDRASWADLRTN", "protein stability index": 1.39}, {"variant": "WEVQVSPTCPVCKDRAVPADLRTN", "protein stability index": 2.23}, {"variant": "WEVQVSPTCPVCKDRAAPADLRTN", "protein stability index": 2.48}, {"variant": "WEVQVSPTCPVCKDRAIPADLRTN", "protein stability index": 2.66}, {"variant": "WEVQVSPTCPVCKDRAFPADLRTN", "protein stability index": 2.19}, {"variant": "WEVQVSPTCPVCKDRAQPADLRTN", "protein stability index": 2.84}, {"variant": "WEVQVSATCPVCKDRASPADLRTN", "protein stability index": 1.72}, {"variant": "WEVQVSWTCPVCKDRASPADLRTN", "protein stability index": 2.58}, {"variant": "WEVQVSTTCPVCKDRASPADLRTN", "protein stability index": 1.58}, {"variant": "WEVQVSMTCPVCKDRASPADLRTN", "protein stability index": 1.33}, {"variant": "WEVQVSVTCPVCKDRASPADLRTN", "protein stability index": 1.32}, {"variant": "WEVQVSHTCPVCKDRASPADLRTN", "protein stability index": 2.2}, {"variant": "WEVQVSDTCPVCKDRASPADLRTN", "protein stability index": 2.43}, {"variant": "WEVQVSSTCPVCKDRASPADLRTN", "protein stability index": 2.5}, {"variant": "WEVQVSPTYPVCKDRASPADLRTN", "protein stability index": 3.5}, {"variant": "WEVQVSPTWPVCKDRASPADLRTN", "protein stability index": 2.52}, {"variant": "WEVQVSPTVPVCKDRASPADLRTN", "protein stability index": 4.11}, {"variant": "WEVQVSPTTPVCKDRASPADLRTN", "protein stability index": 3.94}, {"variant": "WEVQVSPTEPVCKDRASPADLRTN", "protein stability index": 4.49}, {"variant": "WEVQVSPTKPVCKDRASPADLRTN", "protein stability index": 4.72}, {"variant": "WEVQVSPTHPVCKDRASPADLRTN", "protein stability index": 3.74}, {"variant": "WEVQVSPTFPVCKDRASPADLRTN", "protein stability index": 2.85}, {"variant": "WEWQVSPTCPVCKDRASPADLRTN", "protein stability index": 2.8}, {"variant": "WECQVSPTCPVCKDRASPADLRTN", "protein stability index": 2.11}, {"variant": "WEHQVSPTCPVCKDRASPADLRTN", "protein stability index": 3.16}, {"variant": "WEMQVSPTCPVCKDRASPADLRTN", "protein stability index": 2.79}, {"variant": "WEDQVSPTCPVCKDRASPADLRTN", "protein stability index": 3.35}, {"variant": "WERQVSPTCPVCKDRASPADLRTN", "protein stability index": 2.31}, {"variant": "WEVQVSPTCPHCKDRASPADLRTN", "protein stability index": 1.96}, {"variant": "WEVQVSPTCPCCKDRASPADLRTN", "protein stability index": 1.68}, {"variant": "WEVQVSPTCPTCKDRASPADLRTN", "protein stability index": 3.14}, {"variant": "WEVQVSPTCPPCKDRASPADLRTN", "protein stability index": 3.86}, {"variant": "WEVQVSPTCPGCKDRASPADLRTN", "protein stability index": 2.89}, {"variant": "WEVQVSPTCPDCKDRASPADLRTN", "protein stability index": 3.64}, {"variant": "WEVQVSPTCPQCKDRASPADLRTN", "protein stability index": 2.3}, {"variant": "WEVQVSPTCPSCKDRASPADLRTN", "protein stability index": 1.79}, {"variant": "WEVQVSPTCPYCKDRASPADLRTN", "protein stability index": 1.51}, {"variant": "WEVQVSPTCPMCKDRASPADLRTN", "protein stability index": 1.23}, {"variant": "WEVQVSPTCPRCKDRASPADLRTN", "protein stability index": 2.93}, {"variant": "WEVQVSPTCPICKDRASPADLRTN", "protein stability index": 2.24}, {"variant": "WEVQLSPTCPVCKDRASPADLRTN", "protein stability index": 2.29}, {"variant": "WEVQASPTCPVCKDRASPADLRTN", "protein stability index": 2.15}, {"variant": "WEVQQSPTCPVCKDRASPADLRTN", "protein stability index": 3.37}, {"variant": "WEVQSSPTCPVCKDRASPADLRTN", "protein stability index": 2.94}, {"variant": "WEVQKSPTCPVCKDRASPADLRTN", "protein stability index": 2.98}, {"variant": "WEVQVSPTCPVCKDRKSPADLRTN", "protein stability index": 2.8}, {"variant": "WEVQVSPTCPVCKDRLSPADLRTN", "protein stability index": 1.82}, {"variant": "WEVQVSPTCPVCKDRFSPADLRTN", "protein stability index": 1.91}, {"variant": "WEVQVSPTCPVCKDRQSPADLRTN", "protein stability index": 2.96}, {"variant": "WEVQVSPTCPVCKDRPSPADLRTN", "protein stability index": 2.29}]}]}
